Measured values published in patent US7446175 (dated 2008).

Tests used:
[1] = molecular target: T1, rhesus IL-1beta (rhesus monkey, UniProt P79182)
T1 chain: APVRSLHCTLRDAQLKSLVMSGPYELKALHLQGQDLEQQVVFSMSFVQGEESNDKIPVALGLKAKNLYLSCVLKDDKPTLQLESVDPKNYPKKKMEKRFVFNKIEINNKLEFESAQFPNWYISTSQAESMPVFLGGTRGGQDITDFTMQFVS

[2] = molecular target: T2, mouse IL-1beta (mouse, UniProt P10749); experiment: SPR, 8 nM
T2 chain: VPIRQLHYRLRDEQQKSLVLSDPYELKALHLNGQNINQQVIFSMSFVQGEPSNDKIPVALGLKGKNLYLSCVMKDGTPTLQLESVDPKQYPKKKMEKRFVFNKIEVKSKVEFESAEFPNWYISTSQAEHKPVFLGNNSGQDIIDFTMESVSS

[3] = molecular target: T3, rabbit IL-1beta (rabbit, UniProt P14628); experiment: SPR, 8 nM
T3 chain: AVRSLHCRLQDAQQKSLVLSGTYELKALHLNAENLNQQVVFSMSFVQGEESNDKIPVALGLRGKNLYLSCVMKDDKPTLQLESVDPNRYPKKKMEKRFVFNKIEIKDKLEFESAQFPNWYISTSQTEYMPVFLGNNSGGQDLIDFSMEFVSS

[4] = molecular target: T4, rat IL-1beta (rat, UniProt Q63264); experiment: SPR, 8 nM
T4 chain: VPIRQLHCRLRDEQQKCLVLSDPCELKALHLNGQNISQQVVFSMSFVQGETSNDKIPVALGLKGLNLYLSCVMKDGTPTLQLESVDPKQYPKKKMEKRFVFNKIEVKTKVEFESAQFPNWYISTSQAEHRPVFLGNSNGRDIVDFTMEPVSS

[5] = molecular target: human IL-1Ra (human, UniProt P18510); experiment: SPR, 8 nM

binding result [1]: no binding
binding result [2]: no binding
binding result [3]: no binding
binding result [4]: no binding
binding result [5]: no binding
B1: ACZ885 (antibody, V domains shown)
VH: QVQLVESGGGVVQPGRSLRLSCAASGFTFSVYGMNWVRQAPGKGLEWVAIIWYDGDNQYYADSVKGRFTISRDNSKNTLYLQMNGLRAEDTAVYYCARDLRTGPFDYWGQGTLVTVSS
VL: EIVLTQSPDFQSVTPKEKVTITCRASQSIGSSLHWYQQKPDQSPKLLIKYASQSFSGVPSRFSGSGSGTDFTLTINSLEAEDAAAYYCHQSSSLPFTFGPGTKVDIK
